In patent publication US20040235157A1 one finds luciferase gene reporter assay using PIL5 cells (lowest detectable IFN activity) data, which are given here for two substances.

A value given as a limit tells only on which side of the number the result lay.

The test concerns the target Type I interferon receptor (endogenous, on human promonocytic PIL5 cells derived from U937) (human) (UniProt P17181). Briefly: cell-based or functional assay.
UniProt P17181, sequence (P17181 28-557, chain 1 of 2): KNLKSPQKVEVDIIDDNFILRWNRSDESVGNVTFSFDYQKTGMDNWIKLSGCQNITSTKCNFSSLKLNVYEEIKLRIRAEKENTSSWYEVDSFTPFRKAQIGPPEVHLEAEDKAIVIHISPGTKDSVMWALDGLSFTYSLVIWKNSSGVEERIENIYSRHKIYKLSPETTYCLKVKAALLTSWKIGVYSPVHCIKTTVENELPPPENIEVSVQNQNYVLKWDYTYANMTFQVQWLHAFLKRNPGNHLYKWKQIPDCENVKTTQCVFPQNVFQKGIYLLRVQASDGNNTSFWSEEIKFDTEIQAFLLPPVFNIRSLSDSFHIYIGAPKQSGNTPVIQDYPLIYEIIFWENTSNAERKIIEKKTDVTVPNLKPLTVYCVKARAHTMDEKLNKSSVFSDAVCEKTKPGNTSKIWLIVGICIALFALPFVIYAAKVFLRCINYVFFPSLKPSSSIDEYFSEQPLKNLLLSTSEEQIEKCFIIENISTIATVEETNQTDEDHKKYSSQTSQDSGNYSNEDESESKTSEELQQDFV
UniProt P17181, sequence (P48551 27-515, chain 2 of 2, further chain): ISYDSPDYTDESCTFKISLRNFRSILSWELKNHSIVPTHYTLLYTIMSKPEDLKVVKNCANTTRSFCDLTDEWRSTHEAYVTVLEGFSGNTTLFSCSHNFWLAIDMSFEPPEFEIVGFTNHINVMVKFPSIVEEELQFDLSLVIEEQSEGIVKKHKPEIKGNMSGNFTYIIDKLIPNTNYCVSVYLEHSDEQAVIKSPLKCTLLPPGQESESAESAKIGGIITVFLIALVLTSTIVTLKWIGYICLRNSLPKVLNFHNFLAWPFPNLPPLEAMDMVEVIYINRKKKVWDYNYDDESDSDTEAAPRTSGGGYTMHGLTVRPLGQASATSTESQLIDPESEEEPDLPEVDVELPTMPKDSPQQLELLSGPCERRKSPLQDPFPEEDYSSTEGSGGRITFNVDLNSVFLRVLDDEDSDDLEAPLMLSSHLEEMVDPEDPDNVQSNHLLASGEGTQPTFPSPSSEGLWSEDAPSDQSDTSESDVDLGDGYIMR

Regarding “IFNβ (from UniProt P01574 22-187) (ligand)”, the luciferase gene reporter assay using PIL5 cells (lowest detectable IFN activity) is below 1 IU/ml.
Consider “human IFN α (standard preparation of human interferon alpha) (ligand)”, for which the luciferase gene reporter assay using PIL5 cells (lowest detectable IFN activity) was below 1 IU/ml.
